Here are results for 20 variants from the RNAGym collection of RNA variant scans (doi:10.7554/elife.90254).

To fix the notation:
B1: LINE1-full (parent)
chain: UACGUAGGUGGUUUUCCCCUGAUAGUGCUAAGGGGGCCUGGAAGUUUGGACUGGGCAGAGCUCAACACAGCGUGGCAAAGUGGCUGUGGCUAGACUGCCUCUCUGGAUUCCUCGUCACUCAGCAGGGCAUCUCUGAGAGAAAUGCC

In this data set the parent is B1. Put plainly: self-cleavage, relative activity (ratio to wild type); higher = more cleavage; in vitro, sequencing; the parent is a self-cleaving ribozyme.
Take UACGUAGGUGGUUUUCCCCUGAUAGUGCUAAGGGGGCCUGGAAGUUUGGACUGGGCAGAGCUCAACACAGCGUGGCAAAGUGGCUGUGGCUAGACUGCCUCUCUGGAUUCCUCGUCACUCAGCAGGGCAUCCCUGAGUGAAAUGCC [U132C A138U]: the self-cleavage worked out at 1.48.

With UACGUAGGUGGUUUUCCCCUGAUAGUGCUAAGGGGGCCUGGAAGUUUGGACUGGGCAGAGCUCAACACAGCGUGGCAAAGUGGCUGUGGCUAGACUGCCUCUCUGGAUUCCUCGUCACUCAGCAGGGCAUCCCUGAGGGAAAUGCC [U132C A138G], the self-cleavage was found to be 1.6.

Turning to UACGUAGGUGGUUUUCCCCUGAUAGUGCUAAGGGGGCCUGGAAGUUUGGACUGGGCAGAGCUCAACACAGCGUGGCAAAGUGGCUGUGGCUAGACUGCCUCUCUGGAUUCCUCGUCACUCAGCAGGGCAUCCCUGAGAGUAAUGCC [U132C A140U], the self-cleavage was 1.43.

With UACGUAGGUGGUUUUCCCCUGAUAGUGCUAAGGGGGCCUGGAAGUUUGGACUGGGCAGAGCUCAACACAGCGUGGCAAAGUGGCUGUGGCUAGACUGCCUCUCUGGAUUCCUCGUCACUCAGCAGGGCAUCCCUGAGAGGAAUGCC [U132C A140G], the self-cleavage is 1.65.

On to UACGUAGGUGGUUUUCCCCUGAUAGUGCUAAGGGGGCCUGGAAGUUUGGACUGGGCAGAGCUCAACACAGCGUGGCAAAGUGGCUGUGGCUAGACUGCCUCUCUGGAUUCCUCGUCACUCAGCAGGGCAUCCCUGAGAGAAAUGCU [U132C C146U], for which the self-cleavage was determined as 1.51.

On to UACGUAGGUGGUUUUCCCCUGAUAGUGCUAAGGGGGCCUGGAAGUUUGGACUGGGCAGAGCUCAACACAGCGUGGCAAAGUGGCUGUGGCUAGACUGCCUCUCUGGAUUCCUCGUCACUCAGCAGGGCAUCUUUGAGGGAAAUGCC [C133U A138G], for which the self-cleavage came to 1.32.

As to UACGUAGGUGGUUUUCCCCUGAUAGUGCUAAGGGGGCCUGGAAGUUUGGACUGGGCAGAGCUCAACACAGCGUGGCAAAGUGGCUGUGGCUAGACUGCCUCUCUGGAUUCCUCGUCACUCAGCAGGGCAUCUUUGAGUGAAAUGCC [C133U A138U], the self-cleavage was found to be 2.36.

For the variant UACGUAGGUGGUUUUCCCCUGAUAGUGCUAAGGGGGCCUGGAAGUUUGGACUGGGCAGAGCUCAACACAGCGUGGCAAAGUGGCUGUGGCUAGACUGCCUCUCUGGAUUCCUCGUCACUCAGCAGGGCAUCGCUGAGAGAAAUGCC [U132G], the self-cleavage came to 1.52.

Regarding UACGUAGGUGGUUUUCCCCUGAUAGUGCUAAGGGGGCCUGGAAGUUUGGACUGGGCAGAGCUCAACACAGCGUGGCAAAGUGGCUGUGGCUAGACUGCCUCUCUGGAUUCCUCGUCACUCAGCAGGGCAUCCCUGAGAGAGAUGCC [U132C A141G], the self-cleavage was found to be 1.46.

Consider UACGUAGGUGGUUUUCCCCUGAUAGUGCUAAGGGGGCCUGGAAGUUUGGACUGGGCAGAGCUCAACACAGCGUGGCAAAGUGGCUGUGGCUAGACUGCCUCUCUGGAUUCCUCGUCACUCAGCAGGGCAUCCCUGAGAUAAAUGCC [U132C G139U], for which the self-cleavage was 2.66.

As for UACGUAGGUGGUUUUCCCCUGAUAGUGCUAAGGGGGCCUGGAAGUUUGGACUGGGCAGAGCUCAACACAGCGUGGCAAAGUGGCUGUGGCUAGACUGCCUCUCUGGAUUCCUCGUCACUCAGCAGGGCAUCUCAGAGAGGAAUGCC [U134A A140G], the self-cleavage came out at 0.53.

Take UACGUAGGUGGUUUUCCCCUGAUAGUGCUAAGGGGGCCUGGAAGUUUGGACUGGGCAGAGCUCAACACAGCGUGGCAAAGUGGCUGUGGCUAGACUGCCUCUCUGGAUUCCUCGUCACUCAGCAGGGCAUCUCAGAGAGCAAUGCC [U134A A140C]: the self-cleavage amounted to 0.55.

On to UACGUAGGUGGUUUUCCCCUGAUAGUGCUAAGGGGGCCUGGAAGUUUGGACUGGGCAGAGCUCAACACAGCGUGGCAAAGUGGCUGUGGCUAGACUGCCUCUCUGGAUUCCUCGUCACUCAGCAGGGCAUCCCUGAGAGAACUGCC [U132C A142C], for which the self-cleavage stood at 1.51.

As for UACGUAGGUGGUUUUCCCCUGAUAGUGCUAAGGGGGCCUGGAAGUUUGGACUGGGCAGAGCUCAACACAGCGUGGCAAAGUGGCUGUGGCUAGACUGCCUCUCUGGAUUCCUCGUCACUCAGCAGGGCAUCCCUGAGAGAAUUGCC [U132C A142U], the self-cleavage was determined as 1.2.

Regarding UACGUAGGUGGUUUUCCCCUGAUAGUGCUAAGGGGGCCUGGAAGUUUGGACUGGGCAGAGCUCAACACAGCGUGGCAAAGUGGCUGUGGCUAGACUGCCUCUCUGGAUUCCUCGUCACUCAGCAGGGCAUCUAUGAGAGAAGUGCC [C133A A142G], the self-cleavage came to 1.4.

As for UACGUAGGUGGUUUUCCCCUGAUAGUGCUAAGGGGGCCUGGAAGUUUGGACUGGGCAGAGCUCAACACAGCGUGGCAAAGUGGCUGUGGCUAGACUGCCUCUCUGGAUUCCUCGUCACUCAGCAGGGCAUCCCUGAGAGAAAUUCC [U132C G144U], the self-cleavage was determined as 1.43.

Take UACGUAGGUGGUUUUCCCCUGAUAGUGCUAAGGGGGCCUGGAAGUUUGGACUGGGCAGAGCUCAACACAGCGUGGCAAAGUGGCUGUGGCUAGACUGCCUCUCUGGAUUCCUCGUCACUCAGCAGGGCAUCUCAGGGAGAAAUGCC [U134A A136G]: the self-cleavage amounted to 0.53.

For the variant UACGUAGGUGGUUUUCCCCUGAUAGUGCUAAGGGGGCCUGGAAGUUUGGACUGGGCAGAGCUCAACACAGCGUGGCAAAGUGGCUGUGGCUAGACUGCCUCUCUGGAUUCCUCGUCACUCAGCAGGGCAUCUCAGUGAGAAAUGCC [U134A A136U], the self-cleavage was 1.27.

In the case of UACGUAGGUGGUUUUCCCCUGAUAGUGCUAAGGGGGCCUGGAAGUUUGGACUGGGCAGAGCUCAACACAGCGUGGCAAAGUGGCUGUGGCUAGACUGCCUCUCUGGAUUCCUCGUCACUCAGCAGGGCAUCUCAGAGAGAAAUGCC [U134A], the self-cleavage was 0.98.

For the variant UACGUAGGUGGUUUUCCCCUGAUAGUGCUAAGGGGGCCUGGAAGUUUGGACUGGGCAGAGCUCAACACAGCGUGGCAAAGUGGCUGUGGCUAGACUGCCUCUCUGGAUUCCUCGUCACUCAGCAGGGCAUCUAUGAGAGAAACGCC [C133A U143C], the self-cleavage stood at 1.67.
